# System: ABP1
# Experiment: DHFR-PCA on solid medium, bait ABP1 (Fig. 1B)
# Type: cell-based, Saccharomyces cerevisiae
# Conditions: bait ABP1, label = prey; for medrep (log2 median colony size normalized to plate background, PCA score): 2-4 replicates; for Ratio (SH3-deleted/WT medrep): only significant differences showed, PPIs completely lost have a ratio of 0.1 and the gained PPIs 2.5
# Description: Supplement 41467_2021_21873_MOESM8_ESM.xlsx, sheet "Fig1B" | column: medsize; medrep; Ratio; Score
Molecule,"medrep (log2 median colony size normalized to plate background, PCA score)",Ratio (SH3-deleted/WT medrep)
"YPL246C (protein, UniProt Q12270 1-262, looked up) Rhomboid-type serine protease …: MNWKSYVFPGGHPPAALTTGLVVFLTAIYLLSFIFALREDLSLAPESLFKLQMSRLSLYPLIHLSLPHLLFNVLAIWAPLNLFEETHGTVYTGVFLNLSALFAGILYCLLGKLLYPEALVAGASGWCFTLFAYYSFKESQIRPRTRIFRTDYSIPTLYTPLVLLVAIAVVIPGSSFWGHFFGLCVGYAIGYKESWFNKITPPGWIITKIEKSLDGLIRLIPWGIKYYRDEDIDRTKDYEPLMSTETPLPLHNDNSGTVLGTA",1.384,2.5
"YJL151C (protein, UniProt P14359 1-133, looked up) Protein SNA3: MDRDHINDHDHRMSYSINKDDLLLMVLAVFIPPVAVWKRKGMFNRDTLLNLLLFLLLFFPAIIHACYVVYETSSERSYDLSRRHATAPAVDRDLEAHPAEESQAQPPAYDEDDEAGADVPLMDNKQQLSSGRT",1.425,2.5
"YMR080C (protein, UniProt P30771 1-971, looked up) ATP-dependent helicase NAM7: MVGSGSHTPYDISNSPSDVNVQPATQLNSTLVEDDDVDNQLFEEAQVTETGFRSPSASDNSCAYCGIDSAKCVIKCNSCKKWFCNTKNGTSSSHIVNHLVLSHHNVVSLHPDSDLGDTVLECYNCGRKNVFLLGFVSAKSEAVVVLLCRIPCAQTKNANWDTDQWQPLIEDRQLLSWVAEQPTEEEKLKARLITPSQISKLEAKWRSNKDATINDIDAPEEQEAIPPLLLRYQDAYEYQRSYGPLIKLEADYDKQLKESQALEHISVSWSLALNNRHLASFTLSTFESNELKVAIGDEMILWYSGMQHPDWEGRGYIVRLPNSFQDTFTLELKPSKTPPPTHLTTGFTAEFIWKGTSYDRMQDALKKFAIDKKSISGYLYYKILGHQVVDISFDVPLPKEFSIPNFAQLNSSQSNAVSHVLQRPLSLIQGPPGTGKTVTSATIVYHLSKIHKDRILVCAPSNVAVDHLAAKLRDLGLKVVRLTAKSREDVESSVSNLALHNLVGRGAKGELKNLLKLKDEVGELSASDTKRFVKLVRKTEAEILNKADVVCCTCVGAGDKRLDTKFRTVLIDESTQASEPECLIPIVKGAKQVILVGDHQQLGPVILERKAADAGLKQSLFERLISLGHVPIRLEVQYRMNPYLSEFPSNMFYEGSLQNGVTIEQRTVPNSKFPWPIRGIPMMFWANYGREEISANGTSFLNRIEAMNCERIITKLFRDGVKPEQIGVITPYEGQRAYILQYMQMNGSLDKDLYIKVEVASVDAFQGREKDYIILSCVRANEQQAIGFLRDPRRLNVGLTRAKYGLVILGNPRSLARNTLWNHLLIHFREKGCLVEGTLDNLQLCTVQLVRPQPRKTERPMNAQFNVESEMGDFPKFQDFDAQSMVSFSGQIGDFGNAFVDNTELSSYINNEYWNFENFKSAFSQKQNRNEIDDRNLYQEEASHLNSNFARELQREEQKHELSKDFSNLGI",1.542,2.5
"YNR007C (protein, UniProt P40344 1-310, looked up) Autophagy-related protein 3: MIRSTLSSWREYLTPITHKSTFLTTGQITPEEFVQAGDYLCHMFPTWKWNEESSDISYRDFLPKNKQFLIIRKVPCDKRAEQCVEVEGPDVIMKGFAEDGDEDDVLEYIGSETEHVQSTPAGGTKDSSIDDIDELIQDMEIKEEDENDDTEEFNAKGGLAKDMAQERYYDLYIAYSTSYRVPKMYIVGFNSNGSPLSPEQMFEDISADYRTKTATIEKLPFYKNSVLSVSIHPCKHANVMKILLDKVRVVRQRRRKELQEEQELDGVGDWEDLQDDIDDSLRVDQYLIVFLKFITSVTPSIQHDYTMEGW",1.566,2.5
"YLR258W (protein, UniProt P27472 1-705, looked up) Glycogen [starch] synthase …: MSRDLQNHLLFETATEVANRVGGIYSVLKSKAPITVAQYKDHYHLIGPLNKATYQNEVDILDWKKPEAFSDEMRPVQHALQTMESRGVHFVYGRWLIEGAPKVILFDLDSVRGYSNEWKGDLWSLVGIPSPENDFETNDAILLGYTVAWFLGEVAHLDSQHAIVAHFHEWLAGVALPLCRKRRIDVVTIFTTHATLLGRYLCASGSFDFYNCLESVDVDHEAGRFGIYHRYCIERAAAHSADVFTTVSQITAFEAEHLLKRKPDGILPNGLNVIKFQAFHEFQNLHALKKEKINDFVRGHFHGCFDFDLDNTLYFFIAGRYEYKNKGADMFIEALARLNYRLKVSGSKKTVVAFIVMPAKNNSFTVEALKGQAEVRALENTVHEVTTSIGKRIFDHAIRYPHNGLTTELPTDLGELLKSSDKVMLKRRILALRRPEGQLPPIVTHNMVDDANDLILNKIRQVQLFNSPSDRVKMIFHPEFLNANNPILGLDYDEFVRGCHLGVFPSYYEPWGYTPAECTVMGVPSITTNVSGFGAYMEDLIETNQAKDYGIYIVDRRFKAPDESVEQLVDYMEEFVKKTRRQRINQRNRTERLSDLLDWKRMGLEYVKARQLALRRGYPDQFRELVGEELNDSNMDALAGGKKLKVARPLSVPGSPRDLRSNSTVYMTPGDLGTLQEVNNADDYFSLGVNPAADDDDDGPYADDS",1.989,2.5
"YOR229W (protein, UniProt Q12206 1-467, looked up) Transcriptional modulator WTM2: MAKSKSSQGASGARRKPAPSLYQHISSFKPQFSTRVDDVLHFSKTLTWRSEIIPDKSKGTLTTSLLYSQGSDIYEIDTTLPLKTFYDDDDDDDNDDDDEEGNGKTKSAATPNPEYGDAFQDVEGKPLRPKWIYQGETVAKMQYLESSDDSTAIAMSKNGSLAWFRDEIKVPVHIVQEMMGPATRYSSIHSLTRPGSLAVSDFDVSTNMDTVVKSQSNGYEEDSILKIIDNSDRPGDILRTVHVPGTNVAHSVRFFNNHLFASCSDDNILRFWDTRTADKPLWTLSEPKNGRLTSFDSSQVTENLFVTGFSTGVIKLWDARAVQLATTDLTHRQNGEEPIQNEIAKLFHSGGDSVVDILFSQTSATEFVTVGGTGNVYHWDMEYSFSRNDDDNEDEVRVAAPEELQGQCLKFFHTGGTRRSSNQFGKRNTVALHPVINDFVGTVDSDSLVTAYKPFLASDFIGRGYDD",1.855,2.5

# From paper PMC7954794, “Protein context shapes the specificity of SH3 domain-mediated interactions in vivo” (Nature Communications, 2021)
